System: Escherichia coli TOP10
Test: shrunken log2 fold change of peptide-encoding DNA abundance (4.5 h post-induction vs induction); higher = less antimicrobial activity (less host growth inhibition)
Conditions: time post-induction: 4.5 h; library: site-saturation at positions 5, 18, 19, 20
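Also: peptides expressed intracellularly from a pBAD plasmid library in pooled LB shake-flask culture, induced with 0.3% L-arabinose, DNA abundance read by NGS, three biological replicates, DESeq2 with apeglm shrinkage.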

Sequence	shrunken log2 fold change
RRIRWRPPRLPRPRPRPEDNPRP	0.547
RRIRVRPPRLPRPRPRPVLFPRP	0.00022
RRIRPRPPRLPRPRPRPKCQPRP	0.0931
RRIRSRPPRLPRPRPRPEIVPRP	0.412
RRIRRRPPRLPRPRPRPLDGPRP	0.0894
RRIRRRPPRLPRPRPRPEYCPRP	0.0246
RRIRQRPPRLPRPRPRPMWAPRP	-0.127
RRIRPRPPRLPRPRPRPNAIPRP	-0.0755
RRIRCRPPRLPRPRPRPKLIPRP	-0.0459
RRIRHRPPRLPRPRPRPKGMPRP	-0.448
RRIRFRPPRLPRPRPRPYSHPRP	-1.77
RRIRDRPPRLPRPRPRPGKVPRP	-0.00262
RRIRWRPPRLPRPRPRPRGCPRP	0.961
RRIRARPPRLPRPRPRPTMIPRP	0.00226
RRIRERPPRLPRPRPRPGFLPRP	-0.0604
RRIRRRPPRLPRPRPRPWVFPRP	-0.106
RRIRNRPPRLPRPRPRPHDPPRP	-0.202
RRIRLRPPRLPRPRPRPWAPPRP	1.18
RRIRDRPPRLPRPRPRPAMAPRP	0.575
RRIRPRPPRLPRPRPRPGSCPRP	0.111
RRIRMRPPRLPRPRPRPDMLPRP	0.0647
RRIRSRPPRLPRPRPRPVYYPRP	-0.71
RRIRNRPPRLPRPRPRPPWVPRP	-0.0522
RRIRLRPPRLPRPRPRPKTTPRP	0.196
RRIRIRPPRLPRPRPRPWRKPRP	-0.143

Sequence	shrunken log2 fold change
RRIRFRPPRLPRPRPRPGFLPRP	-0.296
RRIRVRPPRLPRPRPRPNYTPRP	-0.533
RRIRARPPRLPRPRPRPTTPPRP	0.605
RRIRTRPPRLPRPRPRPCQVPRP	-0.304
RRIRSRPPRLPRPRPRPWCKPRP	0.149
RRIRVRPPRLPRPRPRPTWQPRP	0.27
RRIRYRPPRLPRPRPRPNFGPRP	-0.126
RRIRDRPPRLPRPRPRPEVWPRP	1.75
RRIRWRPPRLPRPRPRPNPHPRP	-0.0669
RRIRARPPRLPRPRPRPYGDPRP	-0.0672
RRIRNRPPRLPRPRPRPMSEPRP	-0.0254
RRIRQRPPRLPRPRPRPGQGPRP	-0.000829
RRIRSRPPRLPRPRPRPDTDPRP	0.0794
RRIRTRPPRLPRPRPRPSFRPRP	-1.02
RRIRWRPPRLPRPRPRPQPGPRP	0.221
RRIRRRPPRLPRPRPRPNWGPRP	0.412
RRIRERPPRLPRPRPRPYDAPRP	0.835
RRIRRRPPRLPRPRPRPLNYPRP	-0.365
RRIRHRPPRLPRPRPRPHVAPRP	-0.208
RRIRIRPPRLPRPRPRPLHPPRP	-0.0764
RRIRSRPPRLPRPRPRPFRLPRP	-0.793
RRIRGRPPRLPRPRPRPESIPRP	0.483
RRIRPRPPRLPRPRPRPWYHPRP	-0.516
RRIRWRPPRLPRPRPRPPRQPRP	0.209
RRIRWRPPRLPRPRPRPGGKPRP	0.227

Sequence	shrunken log2 fold change
RRIRWRPPRLPRPRPRPEAHPRP	0.219
RRIRKRPPRLPRPRPRPPRLPRP	0.678
RRIRTRPPRLPRPRPRPRQRPRP	0.394
RRIRWRPPRLPRPRPRPHDTPRP	0.0511
RRIRDRPPRLPRPRPRPTSHPRP	-0.146
RRIRARPPRLPRPRPRPDKFPRP	-0.19
RRIRDRPPRLPRPRPRPRIVPRP	-0.385
RRIRSRPPRLPRPRPRPIMMPRP	-0.0828
RRIRRRPPRLPRPRPRPTCTPRP	0.165
RRIRGRPPRLPRPRPRPELYPRP	1.14
RRIRFRPPRLPRPRPRPWFAPRP	-0.582
RRIRRRPPRLPRPRPRPSQPPRP	0.104
RRIRDRPPRLPRPRPRPLVVPRP	0.102
RRIRRRPPRLPRPRPRPPVCPRP	0.592
RRIRTRPPRLPRPRPRPLLWPRP	0.223
RRIRTRPPRLPRPRPRPCCFPRP	-0.114
RRIRIRPPRLPRPRPRPYSEPRP	-0.535
RRIRIRPPRLPRPRPRPGIGPRP	0.127
RRIRMRPPRLPRPRPRPSWSPRP	0.154
RRIRLRPPRLPRPRPRPIHAPRP	0.111
RRIRNRPPRLPRPRPRPKCWPRP	0.173
RRIRFRPPRLPRPRPRPHKMPRP	-0.154
RRIRDRPPRLPRPRPRPDHIPRP	-0.0651
RRIRYRPPRLPRPRPRPSILPRP	-1.25
RRIRQRPPRLPRPRPRPTKVPRP	-0.0676

Sequence	shrunken log2 fold change
RRIRARPPRLPRPRPRPIYKPRP	-0.172
RRIRVRPPRLPRPRPRPYHGPRP	-0.237
RRIRLRPPRLPRPRPRPPPEPRP	1.35
RRIRDRPPRLPRPRPRPVIRPRP	-0.19
RRIRIRPPRLPRPRPRPNTWPRP	-0.406
RRIRRRPPRLPRPRPRPIRGPRP	0.1
RRIRYRPPRLPRPRPRPYPDPRP	-0.0152
RRIRTRPPRLPRPRPRPNGPPRP	-0.277
RRIRARPPRLPRPRPRPAMCPRP	0.303
RRIRPRPPRLPRPRPRPWHCPRP	-0.0956
RRIRQRPPRLPRPRPRPSGWPRP	-0.112
RRIRMRPPRLPRPRPRPERDPRP	2.25
RRIRQRPPRLPRPRPRPNLHPRP	-0.255
RRIRERPPRLPRPRPRPGRAPRP	0.367
RRIRPRPPRLPRPRPRPGKEPRP	0.0995
RRIRGRPPRLPRPRPRPSDYPRP	0.0378
RRIRHRPPRLPRPRPRPHKFPRP	-0.636
RRIRSRPPRLPRPRPRPYVIPRP	-0.292
RRIRQRPPRLPRPRPRPPKHPRP	-0.142
RRIRFRPPRLPRPRPRPNYQPRP	-0.467
RRIRGRPPRLPRPRPRPLLWPRP	0.896
RRIRQRPPRLPRPRPRPYGEPRP	-0.0137
RRIRARPPRLPRPRPRPGSLPRP	0.056
RRIRQRPPRLPRPRPRPTKAPRP	0.0785
RRIRHRPPRLPRPRPRPTAEPRP	0.056

Sequence	shrunken log2 fold change
RRIRGRPPRLPRPRPRPHHMPRP	-0.219
RRIRSRPPRLPRPRPRPFHPPRP	0.0938
RRIRTRPPRLPRPRPRPHKCPRP	0.215
RRIRLRPPRLPRPRPRPDREPRP	0.0246
RRIRHRPPRLPRPRPRPVAVPRP	-0.0993
RRIRLRPPRLPRPRPRPKGKPRP	-0.106
RRIRVRPPRLPRPRPRPEKCPRP	0.0903
RRIRWRPPRLPRPRPRPEFAPRP	1.02
RRIRQRPPRLPRPRPRPVDDPRP	-0.0578
RRIRPRPPRLPRPRPRPCGDPRP	0.078
RRIRFRPPRLPRPRPRPTPIPRP	0.485
RRIRRRPPRLPRPRPRPQKPPRP	-0.138
RRIRTRPPRLPRPRPRPWCGPRP	-0.0198
RRIRHRPPRLPRPRPRPNQWPRP	-0.227
RRIRMRPPRLPRPRPRPEEHPRP	2.85
RRIRIRPPRLPRPRPRPMRTPRP	0.0509
RRIRVRPPRLPRPRPRPIKHPRP	-0.505
RRIRYRPPRLPRPRPRPSMFPRP	-1.02
RRIRTRPPRLPRPRPRPEAMPRP	0.0163
RRIRKRPPRLPRPRPRPVKVPRP	0.432
RRIRYRPPRLPRPRPRPNPYPRP	-0.0428
RRIRCRPPRLPRPRPRPRIVPRP	0.0193
RRIRKRPPRLPRPRPRPQQNPRP	0.157
RRIRLRPPRLPRPRPRPHQQPRP	0.0445
RRIRQRPPRLPRPRPRPELVPRP	-0.142

Sequence	shrunken log2 fold change
RRIRNRPPRLPRPRPRPWNAPRP	-0.255
RRIRQRPPRLPRPRPRPCYHPRP	-0.947
RRIRPRPPRLPRPRPRPKMGPRP	-0.0348
RRIRFRPPRLPRPRPRPESIPRP	-0.126
RRIRWRPPRLPRPRPRPIDWPRP	0.45
RRIRMRPPRLPRPRPRPYRWPRP	-0.00788
RRIRPRPPRLPRPRPRPEQFPRP	-0.0226
RRIRRRPPRLPRPRPRPRVNPRP	0.398
RRIRTRPPRLPRPRPRPAKPPRP	0.583
RRIRIRPPRLPRPRPRPIDYPRP	-1.06
RRIRTRPPRLPRPRPRPQYLPRP	-0.436
RRIRVRPPRLPRPRPRPDRVPRP	-0.285
RRIRVRPPRLPRPRPRPNEYPRP	-0.487
RRIRWRPPRLPRPRPRPTTEPRP	0.207
RRIRERPPRLPRPRPRPGFTPRP	0.00165
RRIRWRPPRLPRPRPRPNDYPRP	-1.02
RRIRARPPRLPRPRPRPIAFPRP	0.222
RRIRIRPPRLPRPRPRPKLCPRP	0.0563
RRIRNRPPRLPRPRPRPTHDPRP	-0.219
RRIRIRPPRLPRPRPRPGCQPRP	-0.0196
RRIRRRPPRLPRPRPRPAFTPRP	0.118
RRIRRRPPRLPRPRPRPTRWPRP	0.799
RRIRWRPPRLPRPRPRPDRFPRP	0.0986
RRIRMRPPRLPRPRPRPVVYPRP	-0.0377
RRIRLRPPRLPRPRPRPLREPRP	0.332

From the supplement of paper PMC9112550, “Optimization of the antimicrobial peptide Bac7 by deep mutational scanning” (BMC Biology, 2022)
